The target of assay [1] is High Capacity NeutrAvidin Agarose Resin (UniProt P02701). Description: pull-down on NeutrAvidin Agarose resin, 1 uM protein, 2 hrs at 4 C; bound fraction from A280 of flow-through and wash.
Assay [2] shares this target. Description: pull-down on NeutrAvidin Agarose resin, SDS-PAGE of the fractions.

UniProt P02701, sequence (P02701 25-152): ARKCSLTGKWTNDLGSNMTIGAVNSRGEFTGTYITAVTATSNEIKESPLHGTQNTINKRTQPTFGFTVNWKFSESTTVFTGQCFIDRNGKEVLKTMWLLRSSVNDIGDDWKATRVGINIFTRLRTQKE

For the substance IPL biotin-labeled mRuby3, in assay [1], the binding efficiency (percent of protein bound to resin) came out at 65%. Also, the percent unbound in assay [2] turned out to be 35%.
On to unlabeled mRuby3, for which, in assay [1], the binding efficiency (percent of protein bound to resin) amounted to 10%.

The values are drawn from patent US20220056072A1.
